{"source": "patent US20240156960A1", "about": "(priority 2020, published 2024)", "origin": "cited, not measured here", "key": {"SARS-CoV2": {"tested_on": "SARS-CoV2", "details": "source Davide Robbiani et al., 2020"}, "[1]": {"tested_on": "coronavirus named in the cell (SARS-CoV2, SARS-CoV1), S protein"}, "[2]": {"tested_on": "coronavirus named in the cell (SARS-CoV2, SARS-CoV1)"}}, "data": [{"molecule": "C130 (antibody, listed as Homo sapiens, V domains shown) VH: QVQLVQSGAEVKKPGASVKVSCKASGYTFTNYYMHWVRQAPGQGLEWMGIINPSGGSTGYAQKFQGRVTMTRDTSTSTVYMELSSLRSEDTAVYYCARSRPTPDWYFDLWGRGTLVTVSS VL: SYELTQPPSVSVAPGKTARITCGGNNIGSKSVHWYQQKPGQAPVLVIYYDSDRPSGIPERFSGSNSGNTATLTISRVEAGDEADYYCQVWDSSSDHPGVVFGGGTKLTVL", "values": [{"measurement": "Binds to", "setting": "SARS-CoV2", "value": "SARS-CoV2"}, {"measurement": "Not Neutralising Vs", "setting": "SARS-CoV1", "value": "SARS-CoV1,"}]}, {"molecule": "9A1 (antibody, listed as Homo sapiens, V domains shown) VH: EVQLLESGGGVVQPGRSLRLSCVVSGFTFNNYGMHWVRQAPGKGLEWVAVISYEGSVKYYGDHVDGRFTISRDPFKNTLYLHMNNLRPDDTAVYYCAKVSAIFWLGQGLSPIDVWGQGTTVTVSS VL: DIVMTQSPATLSASPGERVTLSCRASQNIRNNLAWYQQKPGQAPRLLIHGASTRAAGAPARFSGSGSDTQFTLTVSSLQSEDFAVYYCHQYSKWPVTFGGGTKVDIK", "values": [{"measurement": "Binds to", "setting": "[1]", "value": "SARS-CoV2"}, {"measurement": "Not Neutralising Vs", "setting": "[2]", "value": "SARS-CoV2"}]}]}
